# B1: Proline-serine-threonine phosphatase-interacting protein 1 (Homo sapiens), O43586 (parent)
# chain: MMPQLQFKDAFWCRDFTAHTGYEVLLQRLLDGRKMCKDMEELLRQRAQAEERYGKELVQIARKAGGQTEINSLRASFDSLKQQMENVGSSHIQLALTLREELRSLEEFRERQKEQRKKYEAVMDRVQKSKLSLYKKAMESKKTYEQKCRDADDAEQAFERISANGHQKQVEKSQNKARQCKDSATEAERVYRQSIAQLEKVRAEWEQEHRTTCEAFQLQEFDRLTILRNALWVHSNQLSMQCVKDDELYEEVRLTLEGCSIDADIDSFIQAKSTGTEPPAPVPYQNYYDREVTPLTSSPGIQPSCGMIKRFSGLLHGSPKTTSLAASAASTETLTPTPERNEGVYTAIAVQEIQGNPASPAQEYRALYDYTAQNPDELDLSAGDILEVILEGEDGWWTVERNGQRGFVPGSYLEKL
# partner: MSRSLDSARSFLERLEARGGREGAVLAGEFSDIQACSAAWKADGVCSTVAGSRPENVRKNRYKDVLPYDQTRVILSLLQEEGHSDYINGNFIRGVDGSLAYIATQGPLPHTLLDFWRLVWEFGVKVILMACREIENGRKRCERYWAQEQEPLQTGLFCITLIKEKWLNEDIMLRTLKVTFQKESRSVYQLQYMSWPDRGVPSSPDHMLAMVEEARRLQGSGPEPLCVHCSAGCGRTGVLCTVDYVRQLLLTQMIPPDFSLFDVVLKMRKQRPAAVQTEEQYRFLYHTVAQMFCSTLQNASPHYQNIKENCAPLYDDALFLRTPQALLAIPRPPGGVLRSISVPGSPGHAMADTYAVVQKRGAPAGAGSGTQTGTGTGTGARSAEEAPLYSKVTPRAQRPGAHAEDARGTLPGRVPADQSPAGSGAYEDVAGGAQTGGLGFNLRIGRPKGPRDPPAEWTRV
# B2: Tyrosine-protein phosphatase non-receptor type 22 (Homo sapiens), Q9Y2R2-1 (parent)
# chain: MDQREILQKFLDEAQSKKITKEEFANEFLKLKRQSTKYKADKTYPTTVAEKPKNIKKNRYKDILPYDYSRVELSLITSDEDSSYINANFIKGVYGPKAYIATQGPLSTTLLDFWRMIWEYSVLIIVMACMEYEMGKKKCERYWAEPGEMQLEFGPFSVSCEAEKRKSDYIIRTLKVKFNSETRTIYQFHYKNWPDHDVPSSIDPILELIWDVRCYQEDDSVPICIHCSAGCGRTGVICAIDYTWMLLKDGIIPENFSVFSLIREMRTQRPSLVQTQEQYELVYNAVLELFKRQMDVIRDKHSGTESQAKHCIPEKNHTLQADSYSPNLPKSTTKAAKMMNQQRTKMEIKESSSFDFRTSEISAKEELVLHPAKSSTSFDFLELNYSFDKNADTTMKWQTKAFPIVGEPLQKHQSLDLGSLLFEGCSNSKPVNAAGRYFNSKVPITRTKSTPFELIQQRETKEVDSKENFSYLESQPHDSCFVEMQAQKVMHVSSAELNYSLPYDSKHQIRNASNVKHHDSSALGVYSYIPLVENPYFSSWPPSGTSSKMSLDLPEKQDGTVFPSSLLPTSSTSLFSYYNSHDSLSLNSPTNISSLLNQESAVLATAPRIDDEIPPPLPVRTPESFIVVEEAGEFSPNVPKSLSSAVKVKIGTSLEWGGTSEPKKFDDSVILRPSKSVKLRSPKSELHQDRSSPPPPLPERTLESFFLADEDCMQAQSIETYSTSYPDTMENSTSSKQTLKTPGKSFTRSKSLKILRNMKKSICNSCPPNKPAESVQSNNSSSFLNFGFANRFSKPKGPRNPPPTWNI
# B3: Proline-serine-threonine phosphatase-interacting protein 1 (Homo sapiens), O43586 (parent)
# chain: B1 chain
# partner: B2 chain
# B4: Proline-serine-threonine phosphatase-interacting protein 1 (Homo sapiens), O43586 (parent)
# chain: B1 chain
# partner: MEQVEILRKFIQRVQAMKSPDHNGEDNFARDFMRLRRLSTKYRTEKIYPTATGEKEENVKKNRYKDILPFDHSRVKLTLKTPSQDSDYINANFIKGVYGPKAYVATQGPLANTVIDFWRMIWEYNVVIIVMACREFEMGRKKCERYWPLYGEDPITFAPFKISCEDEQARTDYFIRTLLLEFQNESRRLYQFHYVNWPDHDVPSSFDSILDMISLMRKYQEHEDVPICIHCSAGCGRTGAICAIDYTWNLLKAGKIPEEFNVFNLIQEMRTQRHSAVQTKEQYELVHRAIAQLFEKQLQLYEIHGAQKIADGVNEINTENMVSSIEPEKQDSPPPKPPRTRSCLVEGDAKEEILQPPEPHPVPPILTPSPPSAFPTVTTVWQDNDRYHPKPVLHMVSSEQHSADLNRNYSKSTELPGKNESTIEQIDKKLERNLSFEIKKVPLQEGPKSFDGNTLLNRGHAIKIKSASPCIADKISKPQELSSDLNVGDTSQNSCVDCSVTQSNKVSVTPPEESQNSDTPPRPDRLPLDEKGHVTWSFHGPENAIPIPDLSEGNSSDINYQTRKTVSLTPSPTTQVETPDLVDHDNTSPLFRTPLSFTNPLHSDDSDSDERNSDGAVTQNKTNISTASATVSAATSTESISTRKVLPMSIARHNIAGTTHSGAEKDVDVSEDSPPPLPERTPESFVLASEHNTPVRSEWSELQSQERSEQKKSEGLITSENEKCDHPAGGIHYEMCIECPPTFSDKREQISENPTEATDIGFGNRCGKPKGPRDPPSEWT
# Variants of: B1
# Conditions: with ptn18_human PTPN18, Q99952
row,effect of a mutation on the interaction,Variant
1,disrupting interaction strength,R228C
2,with no effect,T274M
3,disrupting interaction strength,E250K
4,decreasing interaction strength,E250Q
5,decreasing interaction strength,D246N
6,disrupting interaction strength,W232A
7,with no effect,Q219H
8,with no effect,D266N
9,with no effect,A230T
10,with no effect,E257G
11,disrupting interaction strength,E257K
12,with no effect,G258A

# Variants of: B2
# Conditions: with ppip1_human PSTPIP1, O43586
row,effect of a mutation on the interaction,Variant
1,decreasing interaction strength,R799A
2,decreasing interaction strength,W805A

# Variants of: B3
# Conditions: with PTPN22, Q9Y2R2-1
row,effect of a mutation on the interaction,Variant
1,with no effect,G403E
2,with no effect,G403R
3,with no effect,T274M
4,with no effect,V344I
5,with no effect,D289H
6,disrupting interaction strength,W232A
7,with no effect,D384G
8,with no effect,G258A
9,with no effect,Q219H
10,with no effect,T68M
11,with no effect,R52Q
12,with no effect,Y345C
13,with no effect,R405C
14,disrupting interaction strength,R228C
15,with no effect,V122I
16,with no effect,A230T
17,decreasing interaction strength,D246N
18,decreasing interaction strength,E257K
19,with no effect,E257G
20,decreasing interaction strength,E250Q
21,disrupting interaction strength,E250K
22,with no effect,E277D
23,with no effect,D266N

# Variants of: B3
# Conditions: with PTPN22, Q9Y2R2-1
# Remark: another data set of the same source
row,effect of a mutation on the interaction,Variant
1,decreasing interaction strength,W232A

# Variants of: B3
# Conditions: with PTPN22, Q9Y2R2-1
# Remark: another data set of the same source
row,effect of a mutation on the interaction,Variant
1,decreasing interaction strength,R228C
2,decreasing interaction strength,E257G
3,decreasing interaction strength,E250K

# Variants of: B4
# Conditions: with ptn12_human PTPN12, Q05209
row,effect of a mutation on the interaction,Variant
1,decreasing interaction strength,E250Q
2,disrupting interaction strength,E250K
3,disrupting interaction strength,R228C
4,with no effect,D266N
5,with no effect,Q219H
6,with no effect,A230T
7,with no effect,E257G
8,disrupting interaction strength,E257K
9,with no effect,D246N
10,with no effect,G258A
11,disrupting interaction strength,W232A
12,with no effect,T274M

# From IntAct's records for PubMed 35152348
